Measured values reported in FireProtDB (doi:10.1016/j.jmb.2004.10.057).
Several values for one entry are separate records, joined by “and”; a condition that tells them apart may be missing. Identical values can stand only once.

Settings: Mus musculus, pH 7.4, 20 °C, Tris-HCl 20 mM, whole UniProt chain shown

B1: Adenosine deaminase wild type, P03958 (protein)
chain: MAQTPAFNKPKVELHVHLDGAIKPETILYFGKKRGIALPADTVEELRNIIGMDKPLSLPGFLAKFDYYMPVIAGCREAIKRIAYEFVEMKAKEGVVYVEVRYSPHLLANSKVDPMPWNQTEGDVTPDDVVDLVNQGLQEGEQAFGIKVRSILCCMRHQPSWSLEVLELCKKYNQKTVVAMDLAGDETIEGSSLFPGHVEAYEGAVKNGIHRTVHAGEVGSPEVVREAVDILKTERVGHGYHTIEDEALYNRLLKENMHFEVCPWSSYLTGAWDPKTTHAVVRFKNDKANYSLNTDDPLIFKSTLDTDYQMTKKDMGFTEEEFKRLNINAAKSSFLPEEEKKELLERLYREYQ
denaturant m value (GdnHCl, Fluorescence): 2.08 kcal/mol/M | denaturant midpoint (higher = more stable) (GdnHCl, Fluorescence): 1.91 M | unfolding free energy (GdnHCl, Fluorescence): 3.98 kcal/mol | unfolding free energy (Urea, CD): 5.78 kcal/mol and 7.39 kcal/mol | denaturant midpoint (higher = more stable) (Urea, Enzyme assay): 0.68 M | denaturant m value (Urea, Fluorescence): 0.79 kcal/mol/M | denaturant midpoint (higher = more stable) (Urea, Fluorescence): 6.19 M | unfolding free energy (Urea, Fluorescence): 4.89 kcal/mol
